Measured values published in publication doi:10.1101/2022.01.05.475133 (bioRxiv, 2022).
Values belong to the binder of their own block, whether it stands above or below them.

Assays:
SEC = target: the molecule itself; assay: SEC
[1] = target: 3xFLAG-tagged WT human TRPA1 (human, UniProt O75762 1-1119); assay: co-IP + SEC
FLAG-MBP-WT human TRPA1 = FLAG-MBP-WT human TRPA1 (human, UniProt O75762 1-1119); assay: pull-down + co-IP

stoichiometry N [1]: 4
B1: GFP-tagged WT human TRPA1 (natural protein, UniProt O75762 1-1119, looked up)
chain: MKRSLRKMWRPGEKKEPQGVVYEDVPDDTEDFKESLKVVFEGSAYGLQNFNKQKKLKRCDDMDTFFLHYAAAEGQIELMEKITRDSSLEVLHEMDDYGNTPLHCAVEKNQIESVKFLLSRGANPNLRNFNMMAPLHIAVQGMNNEVMKVLLEHRTIDVNLEGENGNTAVIIACTTNNSEALQILLKKGAKPCKSNKWGCFPIHQAAFSGSKECMEIILRFGEEHGYSRQLHINFMNNGKATPLHLAVQNGDLEMIKMCLDNGAQIDPVEKGRCTAIHFAATQGATEIVKLMISSYSGSVDIVNTTDGCHETMLHRASLFDHHELADYLISVGADINKIDSEGRSPLILATASASWNIVNLLLSKGAQVDIKDNFGRNFLHLTVQQPYGLKNLRPEFMQMQQIKELVMDEDNDGCTPLHYACRQGGPGSVNNLLGFNVSIHSKSKDKKSPLHFAASYGRINTCQRLLQDISDTRLLNEGDLHGMTPLHLAAKNGHDKVVQLLLKKGALFLSDHNGWTALHHASMGGYTQTMKVILDTNLKCTDRLDEDGNTALHFAAREGHAKAVALLLSHNADIVLNKQQASFLHLALHNKRKEVVLTIIRSKRWDECLKIFSHNSPGNKCPITEMIEYLPECMKVLLDFCMLHSTEDKSCRDYYIEYNFKYLQCPLEFTKKTPTQDVIYEPLTALNAMVQNNRIELLNHPVCKEYLLMKWLAYGFRAHMMNLGSYCLGLIPMTILVVNIKPGMAFNSTGIINETSDHSEILDTTNSYLIKTCMILVFLSSIFGYCKEAGQIFQQKRNYFMDISNVLEWIIYTTGIIFVLPLFVEIPAHLQWQCGAIAVYFYWMNFLLYLQRFENCGIFIVMLEVILKTLLRSTVVFIFLLLAFGLSFYILLNLQDPFSSPLLSIIQTFSMMLGDINYRESFLEPYLRNELAHPVLSFAQLVSFTIFVPIVLMNLLIGLAVGDIAEVQKHASLKRIAMQVELHTSLEKKLPLWFLRKVDQKSTIVYPNKPRSGGMLFHIFCFLFCTGEIRQEIPNADKSLEMEILKQKYRLKDLTFLLEKQHELIKLIIQKMEIISETEDDDSHCSFQDRFKKEQMEQRNSRWNTVLRAVKAKTHHLEP
stoichiometry N (SEC): 4

stoichiometry N (FLAG-MBP-WT human TRPA1): 1.3 R919* subunits per WT subunit
B2: Strep-MBP-R919* human TRPA1 (domain or fragment, UniProt O75762 1-918, looked up)
chain: MKRSLRKMWRPGEKKEPQGVVYEDVPDDTEDFKESLKVVFEGSAYGLQNFNKQKKLKRCDDMDTFFLHYAAAEGQIELMEKITRDSSLEVLHEMDDYGNTPLHCAVEKNQIESVKFLLSRGANPNLRNFNMMAPLHIAVQGMNNEVMKVLLEHRTIDVNLEGENGNTAVIIACTTNNSEALQILLKKGAKPCKSNKWGCFPIHQAAFSGSKECMEIILRFGEEHGYSRQLHINFMNNGKATPLHLAVQNGDLEMIKMCLDNGAQIDPVEKGRCTAIHFAATQGATEIVKLMISSYSGSVDIVNTTDGCHETMLHRASLFDHHELADYLISVGADINKIDSEGRSPLILATASASWNIVNLLLSKGAQVDIKDNFGRNFLHLTVQQPYGLKNLRPEFMQMQQIKELVMDEDNDGCTPLHYACRQGGPGSVNNLLGFNVSIHSKSKDKKSPLHFAASYGRINTCQRLLQDISDTRLLNEGDLHGMTPLHLAAKNGHDKVVQLLLKKGALFLSDHNGWTALHHASMGGYTQTMKVILDTNLKCTDRLDEDGNTALHFAAREGHAKAVALLLSHNADIVLNKQQASFLHLALHNKRKEVVLTIIRSKRWDECLKIFSHNSPGNKCPITEMIEYLPECMKVLLDFCMLHSTEDKSCRDYYIEYNFKYLQCPLEFTKKTPTQDVIYEPLTALNAMVQNNRIELLNHPVCKEYLLMKWLAYGFRAHMMNLGSYCLGLIPMTILVVNIKPGMAFNSTGIINETSDHSEILDTTNSYLIKTCMILVFLSSIFGYCKEAGQIFQQKRNYFMDISNVLEWIIYTTGIIFVLPLFVEIPAHLQWQCGAIAVYFYWMNFLLYLQRFENCGIFIVMLEVILKTLLRSTVVFIFLLLAFGLSFYILLNLQDPFSSPLLSIIQTFSMMLGDINY
